Tests used:
[1] = system: fluorescent tripeptidyl substrate PRR, MeOC-GGG-PRR-GG-DPA-KK-NH2
[2] = system: recombinant pro-stem bromelain
[3] = system: recombinant pro-fruit bromelain
[4] = target: albumin in human plasma / human serum (UniProt P02768)
[5] = system: T1, FVR-7-amino-4-methylcoumarin
T1 sequence: FVR

UniProt P02768, sequence (P02768 whole entry, looked up): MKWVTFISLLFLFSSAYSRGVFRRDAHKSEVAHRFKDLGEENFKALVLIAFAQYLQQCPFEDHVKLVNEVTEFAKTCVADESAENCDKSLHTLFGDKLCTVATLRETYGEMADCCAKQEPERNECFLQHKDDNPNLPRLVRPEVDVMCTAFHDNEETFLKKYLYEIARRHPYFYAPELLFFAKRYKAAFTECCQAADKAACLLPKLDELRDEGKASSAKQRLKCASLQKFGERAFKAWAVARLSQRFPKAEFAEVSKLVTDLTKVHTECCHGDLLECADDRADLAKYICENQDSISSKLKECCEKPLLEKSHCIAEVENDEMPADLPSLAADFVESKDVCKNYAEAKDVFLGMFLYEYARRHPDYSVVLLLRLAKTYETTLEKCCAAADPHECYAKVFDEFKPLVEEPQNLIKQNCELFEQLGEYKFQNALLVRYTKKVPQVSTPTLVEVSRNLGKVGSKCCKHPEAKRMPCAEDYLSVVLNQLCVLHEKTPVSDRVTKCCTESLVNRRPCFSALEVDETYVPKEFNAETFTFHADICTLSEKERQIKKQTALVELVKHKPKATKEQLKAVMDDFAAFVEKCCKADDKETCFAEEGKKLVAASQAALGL

activated stem bromelain
initial rate of proteolysis of PRR (fluorescence) [1]: about 0.024 µg PRR molecules per min

active ananain (recombinant, obtained by activation of pro-ananain)
cleavage of pro-SB by active ananain, SDS-PAGE time course [2]: mixing active ananain and pro-SB at a weight ratio of 1:25 led to a complete cleavage of pro-SB within 10 min, resulting in two fragments of 24 and 12 kDa
cleavage of pro-SB on an ananain-immobilized column, SDS-PAGE [2]: The collected activated SB was subject to SDS-PAGE analysis and was confirmed to be fully activated
cleavage of pro-FB on an ananain-immobilized column, SDS-PAGE [3]: The collected activated FB was subject to SDS-PAGE analysis and was confirmed to be fully activated
proteolysis of human plasma/serum proteins, SDS-PAGE [4]: The clear reduction of albumin in sample A, C and D in the presence of ananain indicates that albumin is a protein substrate for ananain

recombinant pro-fruit bromelain
proteolysis of FVR-AMC (fluorescence) [5]: pro-FB did not cleave FVR-AMC at all

recombinant pro-stem bromelain
initial rate of proteolysis of PRR (fluorescence) [1]: the cleavage of PRR by 100 nM Pro-SB was negligible

From patent US20230263867
